Assay results published in patent US20260055153A1 (published 2026).

Target: R1-E5
Test: BLI

B1: IL-15Rβ (receptor)
chain: AVNGTSQFTCFYNSRANISCVWSQDGALQDTSCQVHAWPDRRRWNQTCELLPVSQASWACNLILGAPDSQKLTTVDIVTLRVLCREGVRWRVMAIQDFKPFENLRLMAPISLQVVHVETHRCNISWEISQASHYFERHLEFEARTLSPGHTWEEAPLLTLKQKQEWICLETLTPDTQYEFQVRVKPLQGEFTTWSPWSQPLAFRTKPAALGKD
- Kd: 43 nM
